Reference: patent EP4803541A1 (Changchun Genescience Pharmaceutical Co., Ltd., dated 2026)

How the values were obtained:
rhGH protein = rhGH protein (UniProt: P01241) (human) (UniProt P01241); assay: ELISA on coated rhGH, anti-6*His HRP; sample after 0.5M NaOH 24h, against WT; parameters: unit not given beside the values
[1] = target: T1, rhGH protein (UniProt: P01241) (human, UniProt P01241 27-217); assay: ELISA on coated rhGH; sample after 0.5M NaOH 24h
T1 construct: Coated at 5 ug/ml in the ELISA; also called human growth hormone
T1 sequence (P01241 27-217 limits assumed, one chain of several): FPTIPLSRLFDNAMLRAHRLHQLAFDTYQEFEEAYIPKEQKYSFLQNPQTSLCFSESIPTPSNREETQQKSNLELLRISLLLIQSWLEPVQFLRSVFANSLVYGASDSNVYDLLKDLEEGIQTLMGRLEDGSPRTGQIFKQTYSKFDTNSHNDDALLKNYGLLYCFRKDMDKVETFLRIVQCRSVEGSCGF

GH (GH stock solution) [2] = target: GH (GH stock solution) (UniProt P01241); assay: affinity chromatography, VHH-conjugated medium loaded with GH stock solution; medium in 0.1M NaOH 32h
Sequence of GH (GH stock solution) (P01241 27-217 limits assumed): as the sequence (P01241 27-217 limits assumed, one chain of several) above

GH (GH stock solution) [3] = target: GH (GH stock solution) (UniProt P01241); assay: affinity chromatography, VHH-conjugated medium loaded with GH stock solution; medium in 0.5M NaOH 0h
GH (GH stock solution) [4] = target: GH (GH stock solution) (UniProt P01241); assay: affinity chromatography, VHH-conjugated medium loaded with GH stock solution; medium in 0.1M NaOH 0h
GH (GH stock solution) [5] = target: GH (GH stock solution) (UniProt P01241); assay: affinity chromatography, VHH-conjugated medium loaded with GH stock solution; medium in 0.1M NaOH 24h
GH (GH stock solution) [6] = target: GH (GH stock solution) (UniProt P01241); assay: affinity chromatography, VHH-conjugated medium loaded with GH stock solution; medium in 0.5M NaOH 24h
GH (GH stock solution) [7] = target: GH (GH stock solution) (UniProt P01241); assay: affinity chromatography, VHH-conjugated medium loaded with GH stock solution; medium in 0.5M NaOH 6h

Sequence of rhGH protein (UniProt: P01241) (human) (UniProt P01241) (P01241 27-217 limits assumed, one chain of several): as above

| Binder | EC50 against that of the WT after 0.5M alkali (% higher than WT) (rhGH protein) | binding result [1] | further results |
| --- | --- | --- | --- |
| M11 (First round) (VHH) VHH: QVQLVESGGGLAQAGGSLRLSCAVSGMPEFARAMGWFRQAPGKERELLAAIEGIGATTYYADSVKGRFTISRDDAANTVLLQMNSLKPDDTAVYYCAAAFSVTIPTRARHWVDWGQGTLVTVSS | 50 |  |  |
| M24 (First round) (VHH) VHH: QVQLVESGGGLAQAGGSLRLSCAVSGMPEFARAMGWFRQAPGKERELLAAIEGIGATTYYADSVKGRFTISRDDAANTVLLQMNSLKPDDTAVYYCAAAFSVTIPTRARHFVDWGPGTLVTVSS | 50 |  |  |
| M28 (First round) (VHH) VHH: QVQLVESGGGLAQAGGSLTLSCAVSGMPEFARAMGWFRQAPGKERELLAAIEGIGATTYYADSVKGRFTISRDDAANTVLLQMNSLKPDDTAVYYCAAAFSVTIPTRARHWVDWGPGTLVTVSS | 50 |  |  |
| M22 (First round) (VHH) VHH: QVQLVESGGGKAQAGGSLRLSCAVSGMPEFARAMGWFRQAPGKERELLAAIEGIGATTYYADSVKGRFTISRDDAANTVLLQMNSLKPDDTAVYYCAAAFSVTIPTRARHWVDWGPGTLVTVSS | 50 |  |  |
| M53 (Second round) (VHH, Entry already carries A57D; R100eE); tail DDDDK-SGGGGS-HHHHHH) VHH: QVQLVESGGGLAQAGGSLRLSCAVSGMPEFARAMGWFRQAPGKERELLAAIEGIGDTTYYADSVKGRFTISRDDAANTVLLQMNSLKPDDTAVYYCAAAFSVTIPTRAEHWVDWGPGTLVTVSS |  | binds |  |
| M45 (First round) (VHH) VHH: QVQLVESGGGLAQAGGSLRLSCAVSGMPEFARAMGWFRQAPGKERELLAAIEGIGATTYYADSVKGRFTISRDDAANTVLLQMNSLKPDDTAVYYCAAAFSVTIPTRARHWVDWGPGTLVTVSS | 50 |  | dynamic binding capacity at 10% breakthrough (GH (GH stock solution) [2]): 16.2; dynamic binding capacity at 10% breakthrough (GH (GH stock solution) [3]): 18.2; dynamic binding capacity at 10% breakthrough (GH (GH stock solution) [4]): 18.2; dynamic binding capacity at 10% breakthrough (GH (GH stock solution) [5]): 17.4; dynamic binding capacity at 10% breakthrough (GH (GH stock solution) [6]): 4.29; dynamic binding capacity at 10% breakthrough (GH (GH stock solution) [7]): 7.6 |
| M34 (First round) (VHH) VHH: QVQLVESGGGLAQAGGSLRLSCAVSGMPEFARAMGWFRQAPGKERELLAAIEGIGATTYYADSVKGRFTISRDDAASTVLLQMNSLKPDDTAVYYCAAAFSVTIPTRARHWVDWGPGTLVTVSS | 50 |  |  |
| M64 (Second round) (VHH, Entry already carries A15P; tail DDDDK-SGGRGS-HHHHHH) VHH: QVQLVESGGGLAQPGGSLRLSCAVSGMPEFARAMGWFRQAPGKERELLAAIEGIGATTYYADSVKGRFTISRDDAANTVLLQMNSLKPDDTAVYYCAAAFSVTIPTRARHWVDWGPGTLVTVSS | 50 | binds |  |
| M69 (Second round) (VHH, Entry already carries P29T; tail DDDDK-SGGRGS-HHHHHH) VHH: QVQLVESGGGLAQAGGSLRLSCAVSGMTEFARAMGWFRQAPGKERELLAAIEGIGATTYYADSVKGRFTISRDDAANTVLLQMNSLKPDDTAVYYCAAAFSVTIPTRARHWVDWGPGTLVTVSS | 50 | binds |  |
| M71 (Second round) (VHH, Entry already carries A57D; P117Q; R100eE; P105Q); tail DDDDK-SGGGGS-HHHHHH) VHH: QVQLVESGGGLAQAGGSLRLSCAVSGMPEFARAMGWFRQAPGKERELLAAIEGIGDTTYYADSVKGRFTISRDDAANTVLLQMNSLKPDDTAVYYCAAAFSVTIPTRAEHWVDWGQGTLVTVSS |  | binds |  |
| M88 (Second round) (VHH, Entry already carries A57D; G134R; R110E; A55D; R100eE); tail DDDDK-SGGRGS-HHHHHH) VHH: QVQLVESGGGLAQAGGSLRLSCAVSGMPEFARAMGWFRQAPGKERELVAAIEGIGDTTYYADSVKGRFTISRDDAANTVLLQMNSLKPDDTAVYYCAAAFSVTIPTRAEHWVDWGPGTLVTVSS |  | binds |  |
| M66 (Second round) (VHH, Entry already carries P29T; P28T); tail DDDDK-SGGGGS-HHHHHH) VHH: QVQLVESGGGLAQPGGSLRLSCAVSGMTEFARAMGWFRQAPGKERELLAAIEGIGATTYYADSVKGRFTISRDDAANTVLLQMNSLKPDDTAVYYCAAAFSVTIPTRARHWVDWGPGTLVTVSS |  | binds |  |
| M68 (Second round) (VHH, Entry already carries A15P; R19T); tail DDDDK-SGGGGS-HHHHHH) VHH: QVQLVESGGGLAQPGGSLTLSCAVSGMPEFARAMGWFRQAPGKERELLAAIEGIGATTYYADSVKGRFTISRDDAANTVLLQMNSLKPDDTAVYYCAAAFSVTIPTRARHWVDWGPGTLVTVSS |  | binds | dynamic binding capacity at 10% breakthrough (GH (GH stock solution) [2]): 15.4; dynamic binding capacity at 10% breakthrough (GH (GH stock solution) [3]): 15.3; dynamic binding capacity at 10% breakthrough (GH (GH stock solution) [4]): 15.9; dynamic binding capacity at 10% breakthrough (GH (GH stock solution) [5]): 16.2; dynamic binding capacity at 10% breakthrough (GH (GH stock solution) [6]): 5.41; dynamic binding capacity at 10% breakthrough (GH (GH stock solution) [7]): 12.2 |
| M72 (Second round) (VHH, Entry already carries A57D; D114Y; W100gF; D102Y); tail DDDDK-SGGGGS-HHHHHH) VHH: QVQLVESGGGLAQAGGSLRLSCAVSGMPEFARAMGWFRQAPGKERELLAAIEGIGDTTYYADSVKGRFTISRDDAANTVLLQMNSLKPDDTAVYYCAAAFSVTIPTRARHFVYWGPGTLVTVSS |  | binds |  |
| M70 (Second round) (VHH, Entry already carries A15P; R100eE); tail DDDDK-SGGGGS-HHHHHH) VHH: QVQLVESGGGLAQPGGSLRLSCAVSGMPEFARAMGWFRQAPGKERELLAAIEGIGATTYYADSVKGRFTISRDDAANTVLLQMNSLKPDDTAVYYCAAAFSVTIPTRAEHWVDWGPGTLVTVSS |  | binds |  |
| M75 (Second round) (VHH, Entry already carries A57D; R110E; R100eE; D102Y); tail DDDDK-SGGGGS-HHHHHH) VHH: QVQLVESGGGLAQAGGSLRLSCAVSGMPEFARAMGWFRQAPGKERELLAAIEGIGDTTYYADSVKGRFTISRDDAANTVLLQMNSLKPDDTAVYYCAAAFSVTIPTRAEHWVYWGPGTLVTVSS |  | binds |  |
| M76 (Second round) (VHH, Entry already carries A57D; G134R; W100gF); tail DDDDK-SGGRGS-HHHHHH) VHH: QVQLVESGGGLAQAGGSLRLSCAVSGMPEFARAMGWFRQAPGKERELLAAIEGIGDTTYYADSVKGRFTISRDDAANTVLLQMNSLKPDDTAVYYCAAAFSVTIPTRARHFVDWGPGTLVTVSS |  | binds |  |

Now from value to binder, other results behind:

| EC50 against that of the WT after 0.5M alkali (% higher than WT) (rhGH protein) | binding result [1] | Binder | further results |
| --- | --- | --- | --- |
| 50 |  | M33 (First round) (VHH) VHH: QVQLVESGGGLAQAGGSLRLSCAVSGMPEFARAMGWFRQAPGKERELLAAIEGIGDTTYYADSVKGRFTISRDDAANTVLLQMNSLKPDDTAVYYCAAAFSVTIPTRARHWVDWGPGTLVTVSS |  |
|  | binds | M83 (Second round) (VHH, Entry already carries A57D; P117Q; R110E; R100eE; W100gF; P105Q); tail DDDDK-SGGGGS-HHHHHH) VHH: QVQLVESGGGLAQAGGSLRLSCAVSGMPEFARAMGWFRQAPGKERELLAAIEGIGDTTYYADSVKGRFTISRDDAANTVLLQMNSLKPDDTAVYYCAAAFSVTIPTRAEHFVDWGQGTLVTVSS |  |
|  | binds | M79 (Second round) (VHH, Entry already carries A57D; R110E; A55D; R100eE); tail DDDDK-SGGGGS-HHHHHH) VHH: QVQLVESGGGLAQAGGSLRLSCAVSGMPEFARAMGWFRQAPGKERELVAAIEGIGDTTYYADSVKGRFTISRDDAANTVLLQMNSLKPDDTAVYYCAAAFSVTIPTRAEHWVDWGPGTLVTVSS |  |
|  | binds | M82 (Second round) (VHH, Entry already carries A57D; G134R; R110E; R100eE; D102Y); tail DDDDK-SGGRGS-HHHHHH) VHH: QVQLVESGGGLAQAGGSLRLSCAVSGMPEFARAMGWFRQAPGKERELLAAIEGIGDTTYYADSVKGRFTISRDDAANTVLLQMNSLKPDDTAVYYCAAAFSVTIPTRAEHWVYWGPGTLVTVSS |  |
|  | binds | M67 (Second round) (VHH, Entry already carries A15P; P105Q); tail DDDDK-SGGGGS-HHHHHH) VHH: QVQLVESGGGLAQPGGSLRLSCAVSGMPEFARAMGWFRQAPGKERELLAAIEGIGATTYYADSVKGRFTISRDDAANTVLLQMNSLKPDDTAVYYCAAAFSVTIPTRARHWVDWGQGTLVTVSS | dynamic binding capacity at 10% breakthrough (GH (GH stock solution) [2]): 14.9; dynamic binding capacity at 10% breakthrough (GH (GH stock solution) [3]): 15.9; dynamic binding capacity at 10% breakthrough (GH (GH stock solution) [4]): 15.9; dynamic binding capacity at 10% breakthrough (GH (GH stock solution) [5]): 16.2; dynamic binding capacity at 10% breakthrough (GH (GH stock solution) [6]): 4.23; dynamic binding capacity at 10% breakthrough (GH (GH stock solution) [7]): 10.2 |
|  | binds | M89 (Second round) (VHH, Entry already carries A57D; G134R; R110E; R100eE; W100gF); tail DDDDK-SGGRGS-HHHHHH) VHH: QVQLVESGGGLAQAGGSLRLSCAVSGMPEFARAMGWFRQAPGKERELLAAIEGIGDTTYYADSVKGRFTISRDDAANTVLLQMNSLKPDDTAVYYCAAAFSVTIPTRAEHFVDWGPGTLVTVSS |  |
|  | binds | M81 (Second round) (VHH, Entry already carries A57D; G134R; P117Q; R100eE; P105Q); tail DDDDK-SGGRGS-HHHHHH) VHH: QVQLVESGGGLAQAGGSLRLSCAVSGMPEFARAMGWFRQAPGKERELLAAIEGIGDTTYYADSVKGRFTISRDDAANTVLLQMNSLKPDDTAVYYCAAAFSVTIPTRAEHWVDWGQGTLVTVSS |  |
|  | binds | M59 (Second round) (VHH, Entry already carries A57D; A55D); tail DDDDK-SGGGGS-HHHHHH) VHH: QVQLVESGGGLAQAGGSLRLSCAVSGMTEFARAMGWFRQAPGKERELLAAIEGIGDTTYYADSVKGRFTISRDDAANTVLLQMNSLKPDDTAVYYCAAAFSVTIPTRARHWVDWGPGTLVTVSS |  |
|  | binds | M77 (Second round) (VHH, Entry already carries A57D; R110E; R100eE; W100gF); tail DDDDK-SGGGGS-HHHHHH) VHH: QVQLVESGGGLAQAGGSLRLSCAVSGMPEFARAMGWFRQAPGKERELLAAIEGIGDTTYYADSVKGRFTISRDDAANTVLLQMNSLKPDDTAVYYCAAAFSVTIPTRAEHFVDWGPGTLVTVSS |  |
